Key:
[1] = target: T1, recombinant His-tagged human FRα (human, UniProt P15328 25-234); experiment: BLI, purified, average n=2
T1 construct: Bought protein; also called hFRα; FRα-HIS
Description: (§1) The assay buffer used was KB buffer (kinetics buffer, composed of PBS pH 7.4, 0.1% BSA, 0.02% Tween 20, 0.05% sodium azide) supplemented with 0.06% Tween 20. The experiment was conducted at 25° C. with a shake speed of 1000 rpm.
(§2) Data analysis was performed using the Data analysis software 9.0′ (ForteBio). The reference-subtracted binding curves were globally fitted to the 1:1 interaction model to generate the binding kinetic parameters kₒₙ, koff, and the dissociation constant KD.

[2] = target: T1, recombinant His-tagged human FRα; experiment: BLI, supernatant, n=1
Description: as §1, §2

[3] = target: T1, recombinant His-tagged human FRα; experiment: BLI, n=2
Description: as §1, §2
All parameters remained the same except for the dissociation phase which was recorded for 1500 s.

T1 sequence (P15328 25-234 limits assumed): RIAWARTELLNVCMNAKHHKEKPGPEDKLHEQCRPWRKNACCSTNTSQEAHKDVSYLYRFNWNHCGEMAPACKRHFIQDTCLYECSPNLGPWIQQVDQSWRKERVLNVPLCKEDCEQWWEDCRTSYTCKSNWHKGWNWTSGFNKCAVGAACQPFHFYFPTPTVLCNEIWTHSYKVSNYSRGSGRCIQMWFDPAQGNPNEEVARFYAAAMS

| Binder | Kd [1] | Kd [2] | Kd [3] |
| --- | --- | --- | --- |
| v23818 (antibody, human IgG1, kappa, V domains shown, also called humanized 8K22 H5L5) VH: EVQLVESGGGLVQPGGSLRLSCAASGFTISNNYYMCWVRQAPGKGLEWIACIYGGISGRTYYADWAKGRFTISKDSSKNTVYLQMNSLRAEDTAVYYCVRGYVGTSNLWGQGTLVTVSS VL: DIQMTQSPSSLSASVGDRVTITCQASQSIYSSLAWYQQKPGKAPKLLIYDASHLASGVPSRFSGSRYGTDFTLTISSVQPEDAATYYCQGGWYSSAATYVPNTFGGGTKVEVKR | 6.13 nM | 17.4 nM | – |
| v29676 (scFv, One-armed: scFv fused by an Ala-Ala linker to the N-terminus (hinge) of Het FcA, paired with Het FcB Fc; also called N-term VL-(short)-VH) scFv: DIQMTQSPSSLSASVGDRVTITCQASQSIYSSLAWYQQKPGKAPKLLIYDASHLASGVPSRFSGSRYGTDFTLTISSVQPEDFATYYCQGGWYSSAATYVPNTFGGGTKVEVKGGGGSGGGGSGGGGSEVQLVESGGGLVQPGGSLRLSCAASGFTISNNYYMCWVRQAPGKGLEWIACIYGGISGRTYYADSAKGRFTISKDSSNTVYLQMNSLRAEDTAVYYCVRGYVGTSNLWGQGTLVTVSS | – | – | 3.9 nM |
| v29678 (scFv, also called C-term VL-(short)-VH) scFv: DIQMTQSPSSLSASVGDRVTITCQASQSIYSSLAWYQQKPGKAPKLLIYDASHLASGVPSRFSGSRYGTDFTLTISSVQPEDFATYYCQGGWYSSAATYVPNTFGGGTKVEVKGGGGSGGGGSGGGGSEVQLVESGGGLVQPGGSLRLSCAASGFTISNNYYMCWVRQAPGKGLEWIACIYGGISGRTYYADSAKGRFTISKDSSNTVYLQMNSLRAEDTAVYYCVRGYVGTSNLWGQGTLVTVSS | – | – | 5.1 nM |
| v29682 (scFv, One-armed, scFv at the C-terminus of Het FcA; VL-G100C and VH-G44C (Kabat) already in the entry; also called C-term VL-(short)-VH + disulfide) scFv: DIQMTQSPSSLSASVGDRVTITCQASQSIYSSLAWYQQKPGKAPKLLIYDASHLASGVPSRFSGSRYGTDFTLTISSVQPEDFATYYCQGGWYSSAATYVPNTFGCGTKVEVKGGGGSGGGGSGGGGSEVQLVESGGGLVQPGGSLRLSCAASGFTISNNYYMCWVRQAPGKCLEWIACIYGGISGRTYYADSAKGRFTISKDSSNTVYLQMNSLRAEDTAVYYCVRGYVGTSNLWGQGTLVTVSS | – | – | 2.1 nM |
| v29675 (antibody, V domains shown, One-armed antibody, humanized 8K22 (H4L3 of v23807) Fab on a heterodimeric IgG1 Fc; also called N-term Parent Fab; Parent Fab antibody) VH: EVQLVESGGGLVQPGGSLRLSCAASGFTISNNYYMCWVRQAPGKGLEWIACIYGGISGRTYYADSAKGRFTISKDSSNTVYLQMNSLRAEDTAVYYCVRGYVGTSNLWGQGTLVTVSS VL: DIQMTQSPSSLSASVGDRVTITCQASQSIYSSLAWYQQKPGKAPKLLIYDASHLASGVPSRFSGSRYGTDFTLTISSVQPEDFATYYCQGGWYSSAATYVPNTFGGGTKVEVK | – | – | 4.1 nM |
| v29677 (scFv, One-armed, scFv at the N-terminus of Het FcA (Ala-Ala linker); also called N-term VL-(long)-VH) scFv: DIQMTQSPSSLSASVGDRVTITCQASQSIYSSLAWYQQKPGKAPKLLIYDASHLASGVPSRFSGSRYGTDFTLTISSVQPEDFATYYCQGGWYSSAATYVPNTFGGGTKVEVKGGSGGGSGGGSGGGSGGGSGEVQLVESGGGLVQPGGSLRLSCAASGFTISNNYYMCWVRQAPGKGLEWIACIYGGISGRTYYADSAKGRFTISKDSSNTVYLQMNSLRAEDTAVYYCVRGYVGTSNLWGQGTLVTVSS | – | – | 5 nM |
| v29680 (scFv, One-armed, scFv at the C-terminus of Het FcA (GGGG linker); also called C-term VL-(long)-VH) scFv: DIQMTQSPSSLSASVGDRVTITCQASQSIYSSLAWYQQKPGKAPKLLIYDASHLASGVPSRFSGSRYGTDFTLTISSVQPEDFATYYCQGGWYSSAATYVPNTFGGGTKVEVKGGSGGGSGGGSGGGSGGGSGEVQLVESGGGLVQPGGSLRLSCAASGFTISNNYYMCWVRQAPGKGLEWIACIYGGISGRTYYADSAKGRFTISKDSSNTVYLQMNSLRAEDTAVYYCVRGYVGTSNLWGQGTLVTVSS | – | – | 1.8 nM |
| v29684 (scFv, One-armed, scFv at the C-terminus of Het FcA; VL-G100C and VH-G44C already in the entry; also called C-term VL-(long)-VH + disulfide) scFv: DIQMTQSPSSLSASVGDRVTITCQASQSIYSSLAWYQQKPGKAPKLLIYDASHLASGVPSRFSGSRYGTDFTLTISSVQPEDFATYYCQGGWYSSAATYVPNTFGCGTKVEVKGGSGGGSGGGSGGGSGGGSGEVQLVESGGGLVQPGGSLRLSCAASGFTISNNYYMCWVRQAPGKCLEWIACIYGGISGRTYYADSAKGRFTISKDSSNTVYLQMNSLRAEDTAVYYCVRGYVGTSNLWGQGTLVTVSS | – | – | 0.88 nM |
| v29679 (scFv, One-armed, scFv at the C-terminus of Het FcA (GGGG linker); also called C-term VH-(short)-VL) scFv: EVQLVESGGGLVQPGGSLRLSCAASGFTISNNYYMCWVRQAPGKGLEWIACIYGGISGRTYYADSAKGRFTISKDSSNTVYLQMNSLRAEDTAVYYCVRGYVGTSNLWGQGTLVTVSSGGGGSGGGGSGGGGSDIQMTQSPSSLSASVGDRVTITCQASQSIYSSLAWYQQKPGKAPKLLIYDASHLASGVPSRFSGSRYGTDFTLTISSVQPEDFATYYCQGGWYSSAATYVPNTFGGGTKVEVK | – | – | 0.39 nM |
| v29683 (scFv, One-armed, scFv at the C-terminus of Het FcA; VL-G100C and VH-G44C already in the entry; also called C-term VH-(short)-VL + disulfide) scFv: EVQLVESGGGLVQPGGSLRLSCAASGFTISNNYYMCWVRQAPGKCLEWIACIYGGISGRTYYADSAKGRFTISKDSSNTVYLQMNSLRAEDTAVYYCVRGYVGTSNLWGQGTLVTVSSGGGGSGGGGSGGGGSDIQMTQSPSSLSASVGDRVTITCQASQSIYSSLAWYQQKPGKAPKLLIYDASHLASGVPSRFSGSRYGTDFTLTISSVQPEDFATYYCQGGWYSSAATYVPNTFGCGTKVEVK | – | – | 1.1 nM |
| v29681 (scFv, One-armed, scFv at the C-terminus of Het FcA (GGGG linker); also called C-term VH-(long)-VL) scFv: EVQLVESGGGLVQPGGSLRLSCAASGFTISNNYYMCWVRQAPGKGLEWIACIYGGISGRTYYADSAKGRFTISKDSSNTVYLQMNSLRAEDTAVYYCVRGYVGTSNLWGQGTLVTVSSGGSGGGSGGGSGGGSGGGSGDIQMTQSPSSLSASVGDRVTITCQASQSIYSSLAWYQQKPGKAPKLLIYDASHLASGVPSRFSGSRYGTDFTLTISSVQPEDFATYYCQGGWYSSAATYVPNTFGGGTKVEVK | – | – | 2.6 nM |
| v29685 (scFv, One-armed, scFv at the C-terminus of Het FcA; VL-G100C and VH-G44C already in the entry; also called C-term VH-(long)-VL + disulfide) scFv: EVQLVESGGGLVQPGGSLRLSCAASGFTISNNYYMCWVRQAPGKCLEWIACIYGGISGRTYYADSAKGRFTISKDSSNTVYLQMNSLRAEDTAVYYCVRGYVGTSNLWGQGTLVTVSSGGSGGGSGGGSGGGSGGGSGDIQMTQSPSSLSASVGDRVTITCQASQSIYSSLAWYQQKPGKAPKLLIYDASHLASGVPSRFSGSRYGTDFTLTISSVQPEDFATYYCQGGWYSSAATYVPNTFGCGTKVEVK | – | – | 4.2 nM |
| v23802 (antibody, human IgG1, kappa, also called humanized 8K22 H4L2) heavy: not shown light: DIQMTQSPSSLSASVGDRVTITCQASQSIYSSLAWYQQKPGKAPKLLIYDASHLASGVPSRFSGSGSGTDFTLTISSVQPEDFATYYCQGGWYSSAATYVPNTFGGGTKVEVKRTVAAPSVFIFPPSDEQLKSGTASVVCLLNNFYPREAKVQWKVDNALQSGNSQESVTEQDSKDSTYSLSSTLTLSKADYEKHKVYACEVTHQGLSSPVTKSFNRGEC | 8.53 nM | 17.9 nM | – |
| v23797 (antibody, human IgG1, kappa, also called humanized 8K22 H4L1) heavy: not shown light: DIQMTQSPSSLSASVGDRVTITCQASQSIYSSLAWYQQKPGKAPKLLIYDASHLASGVPSRFSGSGSGTDFTLTISSVQPEDFATYYCQGGWYSSAATYVPNTFGGGTKVEIKRTVAAPSVFIFPPSDEQLKSGTASVVCLLNNFYPREAKVQWKVDNALQSGNSQESVTEQDSKDSTYSLSSTLTLSKADYEKHKVYACEVTHQGLSSPVTKSFNRGEC | 11.9 nM | 14.9 nM | – |
| v23807 (antibody, human IgG1, kappa, V domains shown, also called humanized 8K22 H4L3) VH: EVQLVESGGGLVQPGGSLRLSCAASGFTISNNYYMCWVRQAPGKGLEWIACIYGGISGRTYYADSAKGRFTISKDSSNTVYLQMNSLRAEDTAVYYCVRGYVGTSNLWGQGTLVTVSS VL: DIQMTQSPSSLSASVGDRVTITCQASQSIYSSLAWYQQKPGKAPKLLIYDASHLASGVPSRFSGSRYGTDFTLTISSVQPEDFATYYCQGGWYSSAATYVPNTFGGGTKVEVKR | 7.07 nM | 10.9 nM | – |
| v23812 (antibody, human IgG1, kappa, V domains shown, also called humanized 8K22 H4L4) VH: EVQLVESGGGLVQPGGSLRLSCAASGFTISNNYYMCWVRQAPGKGLEWIACIYGGISGRTYYADSAKGRFTISKDSSNTVYLQMNSLRAEDTAVYYCVRGYVGTSNLWGQGTLVTVSS VL: DIQMTQSPSSLSASVGDRVTITCQASQSIYSSLAWYQQKPGKAPKLLIYDASHLASGVPSRFSGSGSGTDFTLTISSVQPEDAATYYCQGGWYSSAATYVPNTFGGGTKVEVKR | 8.74 nM | 19.5 nM | – |
| v23817 (antibody, human IgG1, kappa, V domains shown, also called humanized 8K22 H4L5) VH: EVQLVESGGGLVQPGGSLRLSCAASGFTISNNYYMCWVRQAPGKGLEWIACIYGGISGRTYYADSAKGRFTISKDSSNTVYLQMNSLRAEDTAVYYCVRGYVGTSNLWGQGTLVTVSS VL: DIQMTQSPSSLSASVGDRVTITCQASQSIYSSLAWYQQKPGKAPKLLIYDASHLASGVPSRFSGSRYGTDFTLTISSVQPEDAATYYCQGGWYSSAATYVPNTFGGGTKVEVKR | 6.41 nM | 9.5 nM | – |

— US20230052369A1 (Zymeworks, published 2023)
